In patent US20210071247 one finds activity data, which are given here for one sequence.

Data set [1] addresses PrimeScript reverse transcriptase (UniProt P03355). As to conditions: LNA at GATA and GAAC of 3' 12-mer GATAgcttGAAC of SEQ 2 (mC LNA), PS linkages in the 12-mer; iSp18 spacer and 3' amino in DCP1; read-through efficiency, 42 C.
Data set [2] relates to AMV reverse transcriptase (Avian myeloblastosis virus). The settings on record: LNA at GATA and GAAC of 3' 12-mer GATAgcttGAAC of SEQ 2 (mC LNA), PS linkages in the 12-mer; iSp18 spacer and 3' amino in DCP1; read-through efficiency, 42 C; lost above 52.5 C.
The next data set has as its target Volcano2G DNA polymerase (UniProt P19821). The settings on record: LNA at GATA and GAAC of 3' 12-mer GATAgcttGAAC of SEQ 2 (mC LNA), PS linkages in the 12-mer; iSp18 spacer and 3' amino in DCP1; first strand read-through efficiency vs DTT1, ddPCR, 42 C.

Chain of Volcano2G DNA polymerase (P19821 whole entry): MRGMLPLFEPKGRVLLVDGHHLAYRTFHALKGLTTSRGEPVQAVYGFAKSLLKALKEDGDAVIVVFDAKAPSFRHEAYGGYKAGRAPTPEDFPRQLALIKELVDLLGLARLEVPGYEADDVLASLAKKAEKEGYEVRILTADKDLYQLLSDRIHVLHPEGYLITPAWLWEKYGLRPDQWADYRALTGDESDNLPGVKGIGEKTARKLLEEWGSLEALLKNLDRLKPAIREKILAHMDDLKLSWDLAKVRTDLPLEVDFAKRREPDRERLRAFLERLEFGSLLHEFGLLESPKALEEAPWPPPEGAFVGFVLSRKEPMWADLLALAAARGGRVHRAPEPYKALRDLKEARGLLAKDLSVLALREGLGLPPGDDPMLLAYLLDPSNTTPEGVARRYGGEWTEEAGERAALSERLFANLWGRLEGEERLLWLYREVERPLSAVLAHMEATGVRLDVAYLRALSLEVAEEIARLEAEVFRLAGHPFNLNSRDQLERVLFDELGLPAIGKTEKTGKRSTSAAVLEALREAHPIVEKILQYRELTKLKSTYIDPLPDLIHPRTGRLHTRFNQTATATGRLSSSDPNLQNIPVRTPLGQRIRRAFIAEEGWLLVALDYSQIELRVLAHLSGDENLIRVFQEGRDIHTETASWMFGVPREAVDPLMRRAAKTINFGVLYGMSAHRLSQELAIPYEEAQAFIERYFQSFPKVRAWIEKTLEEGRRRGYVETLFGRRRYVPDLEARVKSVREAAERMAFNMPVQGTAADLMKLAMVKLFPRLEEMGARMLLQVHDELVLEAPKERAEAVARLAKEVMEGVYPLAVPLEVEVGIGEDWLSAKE

For the sequence “GCGTAACTAGACCATAAGCCGATAGCTTGAACCGGACCAGCAAGCTTAGAGATCACGGTATCCAGATTCGCTCATAGTACACAACTGCCTCCGGTTCAA / GCAGTTGTGTACTATGAGCGA [LTT1 template with DCP1_primer1]”, the activity in data set [1] stood at 0.1%; in data set [2], 0.1%; with Volcano2G DNA polymerase it was 10%.
